Results: paper PMC2956612 (Structure (London, England : 1993), 2010)
Ends that are not written are not given here. * marks the point of attachment. Biotin = O=C1N[C@H]2[C@H](CS[C@H]2CCCCC(=O)*)N1

T1: full length VDR/RXRα heterodimer (His-hVDR with Flag-hRXRα) (human, UniProt P11473 1-427; P19793 1-462)
T1 sequence (looked up) 1: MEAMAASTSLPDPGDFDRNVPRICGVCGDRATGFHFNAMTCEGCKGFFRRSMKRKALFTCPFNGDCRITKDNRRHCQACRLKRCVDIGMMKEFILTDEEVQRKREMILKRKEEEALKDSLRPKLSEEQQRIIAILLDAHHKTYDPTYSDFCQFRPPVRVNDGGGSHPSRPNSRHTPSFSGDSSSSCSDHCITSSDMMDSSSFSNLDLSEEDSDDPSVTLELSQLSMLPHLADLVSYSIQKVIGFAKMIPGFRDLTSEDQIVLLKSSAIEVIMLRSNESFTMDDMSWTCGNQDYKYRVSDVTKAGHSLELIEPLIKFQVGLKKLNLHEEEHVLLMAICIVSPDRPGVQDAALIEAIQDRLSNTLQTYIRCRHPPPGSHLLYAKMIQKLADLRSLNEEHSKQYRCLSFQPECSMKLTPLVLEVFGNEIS
T1 sequence (looked up) 2: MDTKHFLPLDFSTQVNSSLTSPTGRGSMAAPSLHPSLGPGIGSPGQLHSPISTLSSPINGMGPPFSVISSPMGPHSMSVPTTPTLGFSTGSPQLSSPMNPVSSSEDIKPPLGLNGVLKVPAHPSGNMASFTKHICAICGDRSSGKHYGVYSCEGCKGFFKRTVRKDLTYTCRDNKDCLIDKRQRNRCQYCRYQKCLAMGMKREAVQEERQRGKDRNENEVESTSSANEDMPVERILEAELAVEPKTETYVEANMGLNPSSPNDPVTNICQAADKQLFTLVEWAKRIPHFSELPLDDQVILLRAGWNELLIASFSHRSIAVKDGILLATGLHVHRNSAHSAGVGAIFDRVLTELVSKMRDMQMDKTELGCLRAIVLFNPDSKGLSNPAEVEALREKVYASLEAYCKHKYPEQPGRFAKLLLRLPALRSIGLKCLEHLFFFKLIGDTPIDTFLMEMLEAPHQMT


Molecular target: T1, full length VDR/RXRα heterodimer …
Test: AlphaScreen or HTRF

binding result	Binder
binds	Biotin-KGGGGSCPSSHSSLTERHKILHRLLQEGSPSDI [biotinylated SRC1-NR2 peptide]
binds	Biotin-KGGTPPPVSSMAGNTKNHPMLMNLLKDNPAQDF [biotinylated DRIP 205-2 peptide]
